Experimental data from patent publication US20220153838A1.

Target: CD19 (UniProt P15391)
Assay: cell-based or functional assay

Sequence of UniProt P15391 (P15391 20-556 limits assumed): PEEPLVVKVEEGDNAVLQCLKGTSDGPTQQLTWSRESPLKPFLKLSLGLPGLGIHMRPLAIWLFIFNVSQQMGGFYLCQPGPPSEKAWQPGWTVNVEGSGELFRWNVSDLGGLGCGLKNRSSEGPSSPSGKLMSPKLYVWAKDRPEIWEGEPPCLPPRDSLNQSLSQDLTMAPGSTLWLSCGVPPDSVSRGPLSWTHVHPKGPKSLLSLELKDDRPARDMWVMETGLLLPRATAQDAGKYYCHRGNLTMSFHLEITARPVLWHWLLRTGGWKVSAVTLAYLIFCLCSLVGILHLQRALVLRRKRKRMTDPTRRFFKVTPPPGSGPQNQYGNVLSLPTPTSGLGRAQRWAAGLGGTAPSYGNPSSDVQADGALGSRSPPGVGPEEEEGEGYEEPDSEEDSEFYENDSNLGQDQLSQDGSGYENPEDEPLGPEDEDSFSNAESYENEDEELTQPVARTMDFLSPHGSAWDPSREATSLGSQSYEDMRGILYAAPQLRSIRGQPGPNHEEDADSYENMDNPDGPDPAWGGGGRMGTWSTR
Sequence of FMC63-CD8BBZ CAR (Q07011 209-255): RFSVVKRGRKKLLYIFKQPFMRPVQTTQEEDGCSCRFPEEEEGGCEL

IFNγ ELISA, CAR T-cells cultured overnight with CD19-K562 cells: 44300 pg/mL IFNγ
IFNγ ELISA, CAR T-cells cultured overnight with primary CLL cells (CD19-Positive Targets): 13900 pg/mL IFNγ
Substance: FMC63-CD8BBZ CAR
